Eight molecules from patent publication US20190169302A1 (SORRENTO THERAPEUTICS, published 2019) can be followed below.

Experiment [1] addresses human OX40/His (UniProt P43489). The experiment can be described thus: SPR. On the technique in general: In SPR one partner is held on a chip, and binding of the other changes the refractive index at the surface.
Experiment [2] addresses T1, Recombinant human OX40/His (human, UniProt P43489 29-216, limits assumed).
T1 construct: SPR analyte; also called human OX40 proteins; not shown: His tag
T1 sequence: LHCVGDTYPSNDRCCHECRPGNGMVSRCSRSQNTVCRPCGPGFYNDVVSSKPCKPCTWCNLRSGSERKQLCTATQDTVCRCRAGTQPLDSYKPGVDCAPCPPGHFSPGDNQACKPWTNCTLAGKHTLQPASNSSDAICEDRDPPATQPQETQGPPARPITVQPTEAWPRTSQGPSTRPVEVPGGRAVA
Put plainly: SPR (Biacore T200), antibody captured by anti-human Fc, OX40/His as analyte, 1:1 model. The procedure: Kinetic interactions between antibodies and human OX40 proteins were measured at 25° C. using Biacore T200 surface plasmon resonance (GE Healthcare). Anti-human fragment crystallizable region (Fc region) antibody was immobilized on a CMS sensor chip to approximately 8000 resonance units (RU) using standard N-hydroxysuccinimide/N-Ethyl-N′-(3-dimethylaminopropyl) carbodiimide hydrochloride (NHS/EDC) coupling methodology. The anti-OX40 antibody (2 μg/mL) was captured for 60 seconds at a flow rate of 10 μL/minute. Recombinant human OX40/His was serially diluted in a running buffer of 0.01 M HEPES pH 7.4, 0.15 M NaCl, 3 mM EDTA, 0.05% v/v Surfactant P20 (HBS-EP+). All measurements were conducted in HBS-EP+ buffer with a flow rate of 30 μL/minute. A 1:1 (Langmuir) binding model was used to fit the data.

For experiment [3], the target named is T2, human OX40 antigen (soluble, titrated in the ELISA of Example 1) (UniProt P43489 29-216).
T2 chain: T1 sequence
The experiment can be described thus: ELISA, immobilized Ab. Background: In an ELISA, binding on a coated surface is turned into a signal by an enzyme label.

Experiment [4] concerns the target T3, Recombinant human OX40/His (UniProt P43489 29-216).
T3 chain: T1 sequence
The experiment can be described thus: SPR.

Experiment [5] has as its target T4, mouse OX40 (mouse, UniProt P47741 20-211, limits assumed).
T4 construct: Capture on Ni-NTA implies a His tag; also called mouse OX40 antigen
T4 sequence (looked up): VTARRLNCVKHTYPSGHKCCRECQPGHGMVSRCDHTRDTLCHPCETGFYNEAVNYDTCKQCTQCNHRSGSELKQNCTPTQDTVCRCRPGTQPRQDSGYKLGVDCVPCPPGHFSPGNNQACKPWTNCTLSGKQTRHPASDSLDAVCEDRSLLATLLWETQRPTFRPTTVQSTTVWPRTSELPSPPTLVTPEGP
The experiment can be described thus: ELISA, OX40 antigen captured on Ni-NTA plate, antibody at 1 ug/mL. The procedure:
Ni-NTA plate was captured with 50 ul per well of human, mouse, and rhesus OX40 antigen solutions at a concentration of 1 ug/ml in PBS and incubated 1 hour at room temperature. After washing the plate with 0.05% PBS/Tween, 1 ug/mL the human anti-OX40 antibodies in Blocker™ Casein in PBS (Thermo Fisher Catalog Number: 37528) were added with 50 ul per well and incubated for one hour at room temperature. The plate was washed again with 0.05% PBS/Tween and incubated with 50 ul of Jackson Immuno Research Peroxidase AffiniPure Goat Anti-Human IgG, Fcγ Fragment (Catalog Number: 109-035-098) for one hour at room temperature. After washing, the plate was developed with 1-Step™ Ultra TMB-ELISA Substrate Solution (Thermo Fisher Catalog Number: 34028). The plate was read in the FlexStation 3 at OD 450.

The target in experiment [6] is T5, membrane-bound human OX40 (on human OX40-expressing cells) (human, UniProt P43489 29-277).
T5 construct: also called human OX40-expressing MJ cells; OX40+ HEK293-NFkB-luciferase reporter cells
T5 sequence: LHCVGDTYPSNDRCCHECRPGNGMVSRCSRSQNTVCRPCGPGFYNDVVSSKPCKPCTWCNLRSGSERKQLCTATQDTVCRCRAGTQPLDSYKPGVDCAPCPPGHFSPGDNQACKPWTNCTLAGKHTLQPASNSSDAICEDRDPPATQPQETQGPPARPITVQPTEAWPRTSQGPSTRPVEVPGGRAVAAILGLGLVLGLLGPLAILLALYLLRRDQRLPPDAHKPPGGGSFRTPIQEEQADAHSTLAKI
The experiment can be described thus: flow cytometry on human OX40-expressing MJ cells.

Experiment [7] addresses T3, Recombinant human OX40/His. The experiment can be described thus: SPR.

Changes are numbered by the printed parent chain. Like-named read-outs stand apart in the source and are kept apart here.

Consider MOXR0916/RG7888, for which the Kd – broadly, a measure of binding affinity in units of concentration – in experiment [1] came to 3.2 nM.

B1: 5-A8 variant anti-OX40 antibody (antibody, V domains shown)
VH: QVQLVQSGAEVKKPGASVKVSCKTSGYTFTGYYLHWVRQAPGQGLEWMGIINPSDGSTRNAQKFEGRVTMTRDTSTSTVYMELSSLSPEDTAVYYCARDLEYIGSGSLSWFDPWGQGTLVTVSS
VL: QSALTQPASVSGSPGQSITISCTGSSSDIGGYNSVSWYQQYPGKAPKLIIYDVNNRPSGVSNRFSGSKSGNTASLTISGLQAEDEADYYCSSYTFHTGLVYVFGTGTKVTVL
As for B1, the results for the Kd in experiment [2] and in experiment [4] were less than 5 nM and 4.37 nM, respectively. Further, in experiment [3], half-maximal inhibition (IC50) was put at 0.0163 µg/mL.

B2: 2B4 wild type anti-OX40 antibody (antibody, V domains shown)
VH: B1 VH with V2M
VL: QPVLTQPASVSGSPGQSITISCTGTSSDLGAYDYVSWYQQQPGQAPKLIIYDVNNRPSGVSNRFSGSKSGNTASLTISGLQAEDEADYYCSSYTSSSTLVYVFGTGTKVTVL
notes: Fully human antibody of an IgG class, captured or detected through human Fc; the isotype control used was IgG1; also called 2B4 (WT); wild type 2B4
With B2, the figures for the binding result in experiment [5] and in experiment [6] were “no binding (tested: 1 ug/mL)” and “binds”, respectively. The Kd in experiment [7] and in experiment [4] was 332 nM throughout. The IC50 – broadly, the concentration that gives 50% inhibition – in experiment [3] was found to be 0.168 µg/mL.

B3: 5-F5 variant anti-OX40 antibody (antibody, V domains shown)
VH: B1 VH
VL: B1 VL with F95Y, H96D
Regarding B3, the dissociation constant Kd was less than 5 nM in experiment [2] and 3.01 nM in experiment [4]. In experiment [3], this molecule returned a concentration for half-maximal inhibition (IC50) of 0.0263 µg/mL.

B4: 5-H6 variant anti-OX40 antibody (antibody, V domains shown)
VH: B1 VH
VL: B1 VL with F95Y, H96D, T97N, G98D
In the case of B4, the Kd in experiment [2] was less than 5 nM; in experiment [4], 3.51 nM. The molecule further yielded an IC50 in experiment [3] of 0.0275 µg/mL.

B5: 5-A6 variant anti-OX40 antibody (antibody, V domains shown)
VH: B1 VH
VL: B1 VL with H96D
Take B5: the equilibrium dissociation constant (Kd) is less than 5 nM in experiment [2] and 2.41 nM in experiment [4]. The molecule also came in with a 50% inhibitory concentration (IC50) in experiment [3] of 0.0117 µg/mL.

B6: 5-G8 variant anti-OX40 antibody (antibody, V domains shown)
VH: B1 VH
VL: B1 VL with F95Y, H96Y, G98E
B6: the Kd in experiment [2] is less than 5 nM; in experiment [4], 3.8 nM. The IC50 in experiment [3] is 0.0254 µg/mL.

B7: 5-C8 variant anti-OX40 antibody (antibody, V domains shown)
VH: B1 VH
VL: B1 VL with F95H, H96N
For the molecule B7, the Kd was less than 5 nM in experiment [2] and 4.39 nM in experiment [4]. In addition, the half-inhibitory concentration (IC50) in experiment [3] was found to be 0.00353 µg/mL.
